Measurements taken from the supplement of paper PMC10065799, “High-throughput profiling of sequence recognition by tyrosine kinases and SH2 domains using bacterial peptide display” (eLife, 2023).

Columns and labels:
Grb2 SH2 = Grb2 SH2 (UniProt P62993); assay: SH2 binding enrichment of the phosphorylated peptide, bacterial display (enrichment ratio); higher = better substrate or ligand; peptides without Tyr show the background
c-Src SH2 = assay: as above
SHP2-C SH2 = assay: as above
FGFR1 = FGFR1 (UniProt P11362); assay: phosphorylation enrichment, bacterial display (enrichment ratio); higher = better substrate or ligand; peptides without Tyr show the background
Fer (mouse) = assay: as above
EPHB1 = EPHB1 (UniProt P54762); assay: as above
EPHB1, sequence (P54762 whole entry, looked up): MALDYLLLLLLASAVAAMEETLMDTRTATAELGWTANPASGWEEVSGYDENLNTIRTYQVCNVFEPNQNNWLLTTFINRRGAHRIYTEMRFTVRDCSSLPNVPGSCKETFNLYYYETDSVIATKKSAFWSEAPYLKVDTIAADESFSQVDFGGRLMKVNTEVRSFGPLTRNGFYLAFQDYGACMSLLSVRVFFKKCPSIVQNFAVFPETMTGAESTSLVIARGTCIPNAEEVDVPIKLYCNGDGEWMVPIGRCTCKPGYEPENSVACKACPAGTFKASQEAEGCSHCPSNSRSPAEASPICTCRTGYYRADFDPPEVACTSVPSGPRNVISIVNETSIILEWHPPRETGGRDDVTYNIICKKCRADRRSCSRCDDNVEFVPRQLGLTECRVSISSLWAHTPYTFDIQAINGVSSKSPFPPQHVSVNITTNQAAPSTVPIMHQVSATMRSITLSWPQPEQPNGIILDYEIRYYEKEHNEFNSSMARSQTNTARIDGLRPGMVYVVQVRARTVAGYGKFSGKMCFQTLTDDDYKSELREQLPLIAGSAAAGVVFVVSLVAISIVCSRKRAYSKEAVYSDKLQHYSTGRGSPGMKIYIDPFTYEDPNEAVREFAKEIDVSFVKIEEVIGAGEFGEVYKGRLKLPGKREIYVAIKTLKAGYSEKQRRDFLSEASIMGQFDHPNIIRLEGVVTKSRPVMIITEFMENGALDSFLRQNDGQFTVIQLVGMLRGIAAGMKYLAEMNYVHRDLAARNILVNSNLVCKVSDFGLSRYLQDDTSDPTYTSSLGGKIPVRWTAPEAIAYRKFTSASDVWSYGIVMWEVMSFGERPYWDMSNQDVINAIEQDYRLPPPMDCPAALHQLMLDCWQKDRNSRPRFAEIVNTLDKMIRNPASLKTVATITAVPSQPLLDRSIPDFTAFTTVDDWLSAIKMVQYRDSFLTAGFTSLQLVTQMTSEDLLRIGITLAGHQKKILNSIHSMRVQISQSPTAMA

FGFR3 = FGFR3 (UniProt P22607); assay: as above
Fes = Fes (UniProt P07332); assay: as above
Fes, sequence (P07332 whole entry, looked up): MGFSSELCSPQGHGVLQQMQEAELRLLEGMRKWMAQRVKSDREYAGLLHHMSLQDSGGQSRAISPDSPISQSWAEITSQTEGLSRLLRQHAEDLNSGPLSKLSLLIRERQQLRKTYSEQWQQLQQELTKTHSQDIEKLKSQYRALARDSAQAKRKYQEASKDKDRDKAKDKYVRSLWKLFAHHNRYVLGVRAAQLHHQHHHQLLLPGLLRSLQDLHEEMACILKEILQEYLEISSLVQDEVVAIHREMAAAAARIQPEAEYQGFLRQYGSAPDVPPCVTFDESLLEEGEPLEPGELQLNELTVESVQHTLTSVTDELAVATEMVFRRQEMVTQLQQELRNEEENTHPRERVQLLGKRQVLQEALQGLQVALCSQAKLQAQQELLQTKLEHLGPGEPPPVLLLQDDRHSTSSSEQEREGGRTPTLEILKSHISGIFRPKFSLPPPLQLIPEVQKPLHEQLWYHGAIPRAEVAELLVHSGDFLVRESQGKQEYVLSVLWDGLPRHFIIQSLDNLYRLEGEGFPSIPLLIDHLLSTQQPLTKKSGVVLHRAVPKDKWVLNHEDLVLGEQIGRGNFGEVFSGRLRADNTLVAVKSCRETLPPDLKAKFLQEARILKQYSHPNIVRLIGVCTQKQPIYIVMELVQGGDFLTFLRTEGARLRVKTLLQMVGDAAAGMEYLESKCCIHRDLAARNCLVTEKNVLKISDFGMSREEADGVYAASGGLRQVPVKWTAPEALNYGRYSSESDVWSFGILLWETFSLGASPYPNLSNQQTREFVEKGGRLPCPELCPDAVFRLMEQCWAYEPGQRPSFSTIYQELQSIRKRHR

c-Abl (mouse) = assay: as above
EPHB2 = EPHB2 (UniProt P29323); assay: as above
EPHB2, sequence (P29323 whole entry, looked up): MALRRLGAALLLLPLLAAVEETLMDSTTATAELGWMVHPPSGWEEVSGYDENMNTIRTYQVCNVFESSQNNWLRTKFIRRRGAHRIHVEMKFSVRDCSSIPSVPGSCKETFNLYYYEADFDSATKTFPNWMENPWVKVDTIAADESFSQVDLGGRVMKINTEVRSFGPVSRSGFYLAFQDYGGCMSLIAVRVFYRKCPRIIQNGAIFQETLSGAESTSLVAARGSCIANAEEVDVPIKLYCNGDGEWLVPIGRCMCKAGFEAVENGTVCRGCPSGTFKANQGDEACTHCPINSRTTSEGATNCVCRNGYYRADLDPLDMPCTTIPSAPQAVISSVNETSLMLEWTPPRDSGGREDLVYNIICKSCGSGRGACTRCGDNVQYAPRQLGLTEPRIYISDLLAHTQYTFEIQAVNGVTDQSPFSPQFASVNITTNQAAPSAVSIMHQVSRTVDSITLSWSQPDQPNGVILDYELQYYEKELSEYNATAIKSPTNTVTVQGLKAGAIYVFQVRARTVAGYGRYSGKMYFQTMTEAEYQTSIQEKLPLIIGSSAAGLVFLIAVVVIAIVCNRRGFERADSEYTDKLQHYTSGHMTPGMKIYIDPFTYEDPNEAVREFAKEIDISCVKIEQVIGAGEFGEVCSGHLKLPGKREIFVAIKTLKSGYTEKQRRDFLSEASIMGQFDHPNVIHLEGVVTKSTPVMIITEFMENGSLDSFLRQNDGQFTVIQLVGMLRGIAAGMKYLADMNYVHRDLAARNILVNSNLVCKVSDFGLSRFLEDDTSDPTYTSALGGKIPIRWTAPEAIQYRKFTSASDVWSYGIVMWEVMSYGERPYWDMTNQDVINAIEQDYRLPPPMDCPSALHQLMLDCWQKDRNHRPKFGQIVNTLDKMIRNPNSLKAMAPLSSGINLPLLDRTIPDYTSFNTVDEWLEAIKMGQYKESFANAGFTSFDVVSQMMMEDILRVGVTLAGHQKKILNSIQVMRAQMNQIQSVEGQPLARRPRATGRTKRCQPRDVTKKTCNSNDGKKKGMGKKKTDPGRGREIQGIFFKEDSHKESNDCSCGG

AncSZ = assay: as above
Fyn = Fyn (UniProt P06241); assay: as above
Fyn, sequence (P06241 whole entry, looked up): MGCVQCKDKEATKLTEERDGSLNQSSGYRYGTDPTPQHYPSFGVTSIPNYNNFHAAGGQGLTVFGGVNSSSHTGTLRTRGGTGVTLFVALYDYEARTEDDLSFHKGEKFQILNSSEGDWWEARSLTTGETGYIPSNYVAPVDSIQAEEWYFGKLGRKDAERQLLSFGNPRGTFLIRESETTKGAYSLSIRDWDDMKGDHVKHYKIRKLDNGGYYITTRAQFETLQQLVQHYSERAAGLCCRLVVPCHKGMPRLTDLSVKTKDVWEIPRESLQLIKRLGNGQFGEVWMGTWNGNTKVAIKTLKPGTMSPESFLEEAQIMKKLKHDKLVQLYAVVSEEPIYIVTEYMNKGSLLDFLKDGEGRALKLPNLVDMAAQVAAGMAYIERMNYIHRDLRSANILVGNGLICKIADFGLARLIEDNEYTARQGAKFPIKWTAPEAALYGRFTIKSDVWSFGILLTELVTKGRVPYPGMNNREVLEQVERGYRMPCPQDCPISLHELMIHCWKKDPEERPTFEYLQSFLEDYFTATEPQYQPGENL

Jak2 = Jak2 (UniProt O60674); assay: as above
Jak2, sequence (O60674 whole entry, looked up): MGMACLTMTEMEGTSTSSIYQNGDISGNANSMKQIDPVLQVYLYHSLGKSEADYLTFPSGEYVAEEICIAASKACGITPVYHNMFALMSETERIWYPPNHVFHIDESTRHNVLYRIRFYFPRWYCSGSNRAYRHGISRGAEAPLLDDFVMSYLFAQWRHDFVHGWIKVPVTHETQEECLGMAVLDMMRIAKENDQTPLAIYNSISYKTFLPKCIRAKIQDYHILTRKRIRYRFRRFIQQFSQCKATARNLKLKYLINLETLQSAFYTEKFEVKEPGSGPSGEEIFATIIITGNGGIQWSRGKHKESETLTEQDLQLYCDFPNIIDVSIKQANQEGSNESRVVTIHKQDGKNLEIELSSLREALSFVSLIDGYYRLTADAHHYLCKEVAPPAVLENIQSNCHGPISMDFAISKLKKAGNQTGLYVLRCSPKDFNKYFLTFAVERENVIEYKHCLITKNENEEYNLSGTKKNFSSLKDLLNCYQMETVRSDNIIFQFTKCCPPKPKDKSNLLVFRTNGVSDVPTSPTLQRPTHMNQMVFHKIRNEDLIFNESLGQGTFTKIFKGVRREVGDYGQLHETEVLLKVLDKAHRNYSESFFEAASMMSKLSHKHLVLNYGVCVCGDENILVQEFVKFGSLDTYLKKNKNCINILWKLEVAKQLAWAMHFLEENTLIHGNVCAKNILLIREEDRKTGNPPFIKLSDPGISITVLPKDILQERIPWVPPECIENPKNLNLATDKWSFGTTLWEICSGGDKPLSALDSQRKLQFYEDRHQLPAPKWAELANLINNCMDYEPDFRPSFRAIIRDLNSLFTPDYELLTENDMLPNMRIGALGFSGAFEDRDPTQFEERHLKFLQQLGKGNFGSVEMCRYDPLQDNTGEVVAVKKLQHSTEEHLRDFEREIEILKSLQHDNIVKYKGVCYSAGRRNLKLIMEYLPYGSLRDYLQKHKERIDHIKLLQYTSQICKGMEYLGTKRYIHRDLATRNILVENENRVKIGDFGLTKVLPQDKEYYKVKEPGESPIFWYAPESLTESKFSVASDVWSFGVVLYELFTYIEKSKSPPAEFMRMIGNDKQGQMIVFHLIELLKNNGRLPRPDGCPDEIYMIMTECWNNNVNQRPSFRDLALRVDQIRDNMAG

Hck = Hck (UniProt P08631); assay: as above
MERTK = MERTK (UniProt Q12866); assay: as above
c-Src = assay: as above
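Throughout, for SH2 binding enrichment of the phosphorylated peptide, bacterial display: peptide library displayed on the E. coli surface as eCPX fusions, selected cells deep-sequenced, score is each peptide's frequency after selection divided by its frequency in the input.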
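Throughout, for phosphorylation enrichment, bacterial display: 11-residue human phosphosite peptides and single-mutation variants displayed on the E. coli surface, counted by deep sequencing, each peptide's frequency after selection divided by its frequency in the unselected input library; frequency after pTyr selection over input frequency; kinase dosed for 20-30% of maximal phosphorylation in three min.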

Grb2 SH2, sequence (P62993 whole entry, looked up): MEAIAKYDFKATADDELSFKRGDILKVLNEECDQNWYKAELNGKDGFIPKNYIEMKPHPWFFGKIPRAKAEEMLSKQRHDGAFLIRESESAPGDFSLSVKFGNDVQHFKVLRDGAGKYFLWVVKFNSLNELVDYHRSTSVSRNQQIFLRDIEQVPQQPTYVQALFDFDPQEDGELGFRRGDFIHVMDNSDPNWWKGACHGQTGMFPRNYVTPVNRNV

Sequence	SH2 binding enrichment (Grb2 SH2)	SH2 binding enrichment (c-Src SH2)	SH2 binding enrichment (SHP2-C SH2)	phosphorylation enrichment (FGFR1)	phosphorylation enrichment (Fer (mouse))	phosphorylation enrichment (EPHB1)	phosphorylation enrichment (FGFR3)	phosphorylation enrichment (Fes)	phosphorylation enrichment (c-Abl (mouse))	phosphorylation enrichment (EPHB2)	phosphorylation enrichment (AncSZ)	phosphorylation enrichment (Fyn)	phosphorylation enrichment (Jak2)	phosphorylation enrichment (Hck)	phosphorylation enrichment (MERTK)	phosphorylation enrichment (c-Src)
LKFAIYFEVRE [LAMA2_Y1258_A1261V_YF]	0.877	0.653	1.11	0.556	0.932	0.652	1.08	1.72	1.74	0.483	1.65	0.414	2.52	0.569	0.808	0.831
PYYASYPPSPD [GDAP2_Y491_T489A]	0.709	1	0.579	4.96	0.915	10.8	3.53	1.15	4.3	17.7	1.41	10.7	1.25	4.78	11.2	7.56
ILGTFYETGSI [PAX2_Y73_R71T_YF]	0.841	0.619	0.837	0.582	0.749	0.466	0.526	0.956	0.587	0.541	0.773	0.524	0.871	0.621	0.568	0.529
DSKIRYLSADS [TTF1_Y476_E473K]	1.11	0.426	0.682	0.457	0.368	0.465	0.546	0.663	0.508	0.607	0.503	0.389	0.611	0.434	0.435	0.527
EFISENCGEII [EZH2_Y641_Y641N]	1.05	0.62	0.714	0.487	0.478	0.585	0.706	1.1	0.71	0.57	1.31	0.581	1.13	0.495	0.437	0.423
LIDSSYLTRTA [GREB1L_Y1063]	0.844	0.426	0.714	0.507	0.905	0.43	0.44	0.668	0.634	0.746	0.748	0.571	0.651	0.425	0.527	0.489
GTHCHYKAPTV [FZD9_Y569]	1.25	1.3	0.913	0.493	0.505	0.421	0.51	0.79	3.71	0.39	0.648	0.442	0.667	0.429	0.442	0.485
RESSGYLRLAF [MEP1A_Y481]	1.18	0.991	5.52	0.593	0.93	1.08	1.25	1.8	1.23	1.21	1.46	0.732	2.85	0.872	1.07	1.11
KGSEGYLAAIY [NF1_Y2503_T2507I]	0.911	0.54	0.606	0.572	0.493	0.525	0.552	0.912	0.563	0.561	0.78	0.8	0.673	1.09	0.485	0.898
IGERTYGQVYK [CDK13_Y716_G714R]	0.866	0.565	0.675	0.381	0.392	0.409	0.41	0.555	0.536	0.416	0.507	9.16	0.516	3.64	0.408	6.07
DVVKDCAFVHM [RBM14_Y114_Y114C]	0.971	0.523	0.811	0.573	0.498	0.582	0.623	0.993	0.645	0.535	0.899	0.488	0.71	0.486	0.401	0.384
HLWRIYYDITD [MMP27_Y307]	0.869	0.941	1.01	4.63	1.64	9.72	3.87	3.16	1.86	4.96	3.29	2.6	3.36	3.14	1.77	4.21
IFLADCRIMEG [ALOX12B_Y318_Y318C_YF]	0.886	0.461	0.62	0.654	0.594	0.803	1.02	1.48	0.894	0.664	1.33	0.579	1.2	0.662	0.5	0.525
DKATEYIQFVR [MAX_Y70_M74V_YF]	0.789	0.459	0.73	0.519	0.465	0.503	0.551	0.705	0.574	0.53	0.74	0.442	0.55	0.636	0.41	0.556
CTTIHYTYMCN [TP53_Y234_N235T]	1.52	4.85	6.45	0.724	0.591	0.608	0.704	1.07	0.672	0.761	1.08	0.496	1.04	0.524	0.517	0.549
YRTGHYLCNAC [GATA1_Y223_D218Y]	1.01	0.968	1.12	0.412	0.271	0.341	0.41	0.506	0.524	0.415	0.477	0.383	0.424	0.376	0.355	0.31
